Consider 34 molecules from patent US20130045895A1 (published 2013).

B1: DOM7h-14 A43C (other)
VL: DIQMTQSPSSLSASVGDRVTITCRASQWIGSQLSWYQQKPGKCPKLLIMWRSSLQSGVPSRFSGSGSGTDFTLTISSLQPEDFATYYCAQGAALPRTFGQGTKVEIKR
B2: DOM7h-14 A43V (other)
VL: DIQMTQSPSSLSASVGDRVTITCRASQWIGSQLSWYQQKPGKVPKLLIMWRSSLQSGVPSRFSGSGSGTDFTLTISSLQPEDFATYYCAQGAALPRTFGQGTKVEIKR
B3: DOM7h-14 P44A (other)
VL: DIQMTQSPSSLSASVGDRVTITCRASQWIGSQLSWYQQKPGKAAKLLIMWRSSLQSGVPSRFSGSGSGTDFTLTISSLQPEDFATYYCAQGAALPRTFGQGTKVEIKR
B4: DOM7h-14 P44H (other)
VL: DIQMTQSPSSLSASVGDRVTITCRASQWIGSQLSWYQQKPGKAHKLLIMWRSSLQSGVPSRFSGSGSGTDFTLTISSLQPEDFATYYCAQGAALPRTFGQGTKVEIKR
B5: DOM7h-14 Q38A (other)
VL: DIQMTQSPSSLSASVGDRVTITCRASQWIGSQLSWYQAKPGKAPKLLIMWRSSLQSGVPSRFSGSGSGTDFTLTISSLQPEDFATYYCAQGAALPRTFGQGTKVEIKR
B6: DOM7h-14 P44V (other)
VL: DIQMTQSPSSLSASVGDRVTITCRASQWIGSQLSWYQQKPGKAVKLLIMWRSSLQSGVPSRFSGSGSGTDFTLTISSLQPEDFATYYCAQGAALPRTFGQGTKVEIKR
B7: DOM7h-14 A43R (other)
VL: DIQMTQSPSSLSASVGDRVTITCRASQWIGSQLSWYQQKPGKRPKLLIMWRSSLQSGVPSRFSGSGSGTDFTLTISSLQPEDFATYYCAQGAALPRTFGQGTKVEIKR
B8: DOM7h-14 A43I (other)
VL: DIQMTQSPSSLSASVGDRVTITCRASQWIGSQLSWYQQKPGKIPKLLIMWRSSLQSGVPSRFSGSGSGTDFTLTISSLQPEDFATYYCAQGAALPRTFGQGTKVEIKR
B9: DOM7h-14 P44C (other)
VL: DIQMTQSPSSLSASVGDRVTITCRASQWIGSQLSWYQQKPGKACKLLIMWRSSLQSGVPSRFSGSGSGTDFTLTISSLQPEDFATYYCAQGAALPRTFGQGTKVEIKR
B10: DOM7h-14 P44W (other)
VL: DIQMTQSPSSLSASVGDRVTITCRASQWIGSQLSWYQQKPGKAWKLLIMWRSSLQSGVPSRFSGSGSGTDFTLTISSLQPEDFATYYCAQGAALPRTFGQGTKVEIKR
B11: DOM7h-14 A43T (other)
VL: DIQMTQSPSSLSASVGDRVTITCRASQWIGSQLSWYQQKPGKTPKLLIMWRSSLQSGVPSRFSGSGSGTDFTLTISSLQPEDFATYYCAQGAALPRTFGQGTKVEIKR
B12: DOM7h-14 P44R (other)
VL: DIQMTQSPSSLSASVGDRVTITCRASQWIGSQLSWYQQKPGKARKLLIMWRSSLQSGVPSRFSGSGSGTDFTLTISSLQPEDFATYYCAQGAALPRTFGQGTKVEIKR
B13: DOM7h-14 P44S (other)
VL: DIQMTQSPSSLSASVGDRVTITCRASQWIGSQLSWYQQKPGKASKLLIMWRSSLQSGVPSRFSGSGSGTDFTLTISSLQPEDFATYYCAQGAALPRTFGQGTKVEIKR
B14: DOM7h-14 A43M (other)
VL: DIQMTQSPSSLSASVGDRVTITCRASQWIGSQLSWYQQKPGKMPKLLIMWRSSLQSGVPSRFSGSGSGTDFTLTISSLQPEDFATYYCAQGAALPRTFGQGTKVEIKR
B15: DOM7h-14 A43H (other)
VL: DIQMTQSPSSLSASVGDRVTITCRASQWIGSQLSWYQQKPGKHPKLLIMWRSSLQSGVPSRFSGSGSGTDFTLTISSLQPEDFATYYCAQGAALPRTFGQGTKVEIKR
B16: DOM7h-14 P44K (other)
VL: DIQMTQSPSSLSASVGDRVTITCRASQWIGSQLSWYQQKPGKAKKLLIMWRSSLQSGVPSRFSGSGSGTDFTLTISSLQPEDFATYYCAQGAALPRTFGQGTKVEIKR
B17: DOM7h-14 P44T (other)
VL: DIQMTQSPSSLSASVGDRVTITCRASQWIGSQLSWYQQKPGKATKLLIMWRSSLQSGVPSRFSGSGSGTDFTLTISSLQPEDFATYYCAQGAALPRTFGQGTKVEIKR
B18: DOM7h-14 P44L (other)
VL: DIQMTQSPSSLSASVGDRVTITCRASQWIGSQLSWYQQKPGKALKLLIMWRSSLQSGVPSRFSGSGSGTDFTLTISSLQPEDFATYYCAQGAALPRTFGQGTKVEIKR
B19: DOM7h-14 A43L (other)
VL: DIQMTQSPSSLSASVGDRVTITCRASQWIGSQLSWYQQKPGKLPKLLIMWRSSLQSGVPSRFSGSGSGTDFTLTISSLQPEDFATYYCAQGAALPRTFGQGTKVEIKR
B20: DOM7h-14 A43K (other)
VL: DIQMTQSPSSLSASVGDRVTITCRASQWIGSQLSWYQQKPGKKPKLLIMWRSSLQSGVPSRFSGSGSGTDFTLTISSLQPEDFATYYCAQGAALPRTFGQGTKVEIKR
B21: DOM7h-14 A43N (other)
VL: DIQMTQSPSSLSASVGDRVTITCRASQWIGSQLSWYQQKPGKNPKLLIMWRSSLQSGVPSRFSGSGSGTDFTLTISSLQPEDFATYYCAQGAALPRTFGQGTKVEIKR
B22: DOM7h-14 P44N (other)
VL: DIQMTQSPSSLSASVGDRVTITCRASQWIGSQLSWYQQKPGKANKLLIMWRSSLQSGVPSRFSGSGSGTDFTLTISSLQPEDFATYYCAQGAALPRTFGQGTKVEIKR
B23: DOM7h-14 P44Q (other)
VL: DIQMTQSPSSLSASVGDRVTITCRASQWIGSQLSWYQQKPGKAQKLLIMWRSSLQSGVPSRFSGSGSGTDFTLTISSLQPEDFATYYCAQGAALPRTFGQGTKVEIKR
B24: DOM7h-14 A43F (other)
VL: DIQMTQSPSSLSASVGDRVTITCRASQWIGSQLSWYQQKPGKFPKLLIMWRSSLQSGVPSRFSGSGSGTDFTLTISSLQPEDFATYYCAQGAALPRTFGQGTKVEIKR
B25: DOM7h-14 A43Y (other)
VL: DIQMTQSPSSLSASVGDRVTITCRASQWIGSQLSWYQQKPGKYPKLLIMWRSSLQSGVPSRFSGSGSGTDFTLTISSLQPEDFATYYCAQGAALPRTFGQGTKVEIKR
B26: DOM7h-14 P44E (other)
VL: DIQMTQSPSSLSASVGDRVTITCRASQWIGSQLSWYQQKPGKAEKLLIMWRSSLQSGVPSRFSGSGSGTDFTLTISSLQPEDFATYYCAQGAALPRTFGQGTKVEIKR
B27: DOM7h-14 A43E (other)
VL: DIQMTQSPSSLSASVGDRVTITCRASQWIGSQLSWYQQKPGKEPKLLIMWRSSLQSGVPSRFSGSGSGTDFTLTISSLQPEDFATYYCAQGAALPRTFGQGTKVEIKR
B28: DOM7h-14 P44I (other)
VL: DIQMTQSPSSLSASVGDRVTITCRASQWIGSQLSWYQQKPGKAIKLLIMWRSSLQSGVPSRFSGSGSGTDFTLTISSLQPEDFATYYCAQGAALPRTFGQGTKVEIKR
B29: DOM7h-14 A43P (other)
VL: DIQMTQSPSSLSASVGDRVTITCRASQWIGSQLSWYQQKPGKPPKLLIMWRSSLQSGVPSRFSGSGSGTDFTLTISSLQPEDFATYYCAQGAALPRTFGQGTKVEIKR
B30: DOM7h-14 P44D (other)
VL: DIQMTQSPSSLSASVGDRVTITCRASQWIGSQLSWYQQKPGKADKLLIMWRSSLQSGVPSRFSGSGSGTDFTLTISSLQPEDFATYYCAQGAALPRTFGQGTKVEIKR
B31: DOM7h-14 A43G (other)
VL: DIQMTQSPSSLSASVGDRVTITCRASQWIGSQLSWYQQKPGKGPKLLIMWRSSLQSGVPSRFSGSGSGTDFTLTISSLQPEDFATYYCAQGAALPRTFGQGTKVEIKR
B32: DOM7h-14 P44G (other)
VL: DIQMTQSPSSLSASVGDRVTITCRASQWIGSQLSWYQQKPGKAGKLLIMWRSSLQSGVPSRFSGSGSGTDFTLTISSLQPEDFATYYCAQGAALPRTFGQGTKVEIKR
B33: DOM7h-14 P44M (other)
VL: DIQMTQSPSSLSASVGDRVTITCRASQWIGSQLSWYQQKPGKAMKLLIMWRSSLQSGVPSRFSGSGSGTDFTLTISSLQPEDFATYYCAQGAALPRTFGQGTKVEIKR
B34: DOM7h-14 A43S (other)
VL: DIQMTQSPSSLSASVGDRVTITCRASQWIGSQLSWYQQKPGKSPKLLIMWRSSLQSGVPSRFSGSGSGTDFTLTISSLQPEDFATYYCAQGAALPRTFGQGTKVEIKR

For this assay, the target named is T1, Human Serum Albumin (human, UniProt P02768 25-609).
T1 construct: also called HSA; antigen
T1 sequence (P02768 25-609 limits assumed): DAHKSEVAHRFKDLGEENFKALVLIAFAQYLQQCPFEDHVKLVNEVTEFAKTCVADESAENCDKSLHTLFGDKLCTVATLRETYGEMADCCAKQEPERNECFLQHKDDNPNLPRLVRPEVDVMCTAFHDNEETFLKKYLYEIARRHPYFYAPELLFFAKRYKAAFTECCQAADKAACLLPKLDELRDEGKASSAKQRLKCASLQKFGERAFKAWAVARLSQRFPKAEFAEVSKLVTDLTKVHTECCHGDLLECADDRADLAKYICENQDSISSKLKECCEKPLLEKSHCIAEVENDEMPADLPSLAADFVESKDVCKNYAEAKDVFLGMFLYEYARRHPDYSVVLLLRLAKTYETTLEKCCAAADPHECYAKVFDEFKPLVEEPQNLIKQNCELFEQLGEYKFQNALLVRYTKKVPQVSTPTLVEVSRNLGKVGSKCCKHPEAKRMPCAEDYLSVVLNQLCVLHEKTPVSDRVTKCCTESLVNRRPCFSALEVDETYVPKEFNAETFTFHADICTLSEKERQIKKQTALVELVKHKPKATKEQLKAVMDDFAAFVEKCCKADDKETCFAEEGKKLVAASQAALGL
The experiment in a line: BIAcore, supernatant over immobilised HSA (6036 RU).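 Also: expressed culture supernatants of mutant clones diluted 1:1 in HBS-EP buffer and screened for binding.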 In general terms: Surface plasmon resonance follows binding to a sensor surface in real time, without labels.
Procedure: Screening of expressed supernatants for Protein L and HSA binding: Mutant clones were picked into a 96 well plate format and expressed in 1 mL 2×TY 0.1 mg/ml carbenicillin supplemented with OnEx solutions 1, 2 and 3 according to the manufacturer's instructions (Novagen). Cultures were grown at 30° C. for 3 days at 950 rpm high humidity in an InforsHT shaker. Cells were pelleted by centrifugation (4.5 k in a bench top Sorvall centrifuge for 30 mins) and 75 μL of the supernatant added to an equal volume of HBS-EP buffer (GE Healthcare).
Turning to B1, the binding result is recorded as “binds”.

Regarding B2, the binding result is recorded as “binds”.

In the case of B3, the binding result is on record as “binds”.

As to B4, the binding result is “binds”.

For the molecule B5, the binding result was “binds”.

Regarding B6, the binding result is given as “binds”.

B7: the binding result is on record as “binds”.

As for B8, the binding result was “binds”.

In the case of B9, the binding result is given as “binds”.

With B10, the binding result was “binds”.

As to B11, the binding result is given as “binds”.

As to B12, the binding result is “binds”.

As for B13, the binding result is recorded as “binds”.

As for B14, the binding result is given as “binds”.

Regarding B15, the binding result is “binds”.

On to B16, for which the binding result is given as “binds”.

Regarding B17, the binding result is given as “binds”.

Turning to B18, the binding result is given as “binds”.

With B19, the binding result is given as “binds”.

In the case of B20, the binding result is “binds”.

For the molecule B21, the binding result is on record as “binds”.

On to B22, for which the binding result is reported as “binds”.

On to B23, for which the binding result is reported as “binds”.

On to B24, for which the binding result is on record as “binds”.

For the molecule B25, the binding result was “binds”.

For the molecule B26, the binding result is “binds”.

Turning to B27, the binding result is listed as “binds”.

Regarding B28, the binding result is listed as “binds”.

As for B29, the binding result is reported as “binds”.

As for B30, the binding result is “binds”.

As for B31, the binding result is listed as “binds”.

In the case of B32, the binding result was “binds”.

Take B33: the binding result is on record as “binds”.

Take B34: the binding result is “binds”.
